Experimental findings from the domain aggregation screens of Martell et al. (2025) are described below.

This data set in a line: soluble fraction after stress (log2 fold change); higher = more stays soluble; pooled small domains, quantitative proteomics. To be noted: stress: pH 4. The method in brief: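 High-throughput quantitative proteomics was run on pooled custom libraries of small protein domains following pH 4 stress. Fold changes are on a log2 scale; higher values mean more of a domain remained soluble. The fold change in soluble amount is taken as a measure of aggregation propensity.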
As for “HMSNIQLAANLQRLRKDHHFTQTQFSKKLNISRQAYSNYETGKRIPDLDIIIRIANIYHISLENLL”, the “soluble fraction (log2)” value is -0.203.
The figure for “HMSNKYYETILDWFKSQIMSGELKEGDTIPSERELATRFGVSRVPVREALRILEYIGIVSNTADGMTVQKV” is -0.976; for “HMSNLKKRRLEKNLTLDDVGKLVGVSAATISRWESGDIENMRSDKIVKLANALEISPAVILGW” it is -0.641; for “HMSNLLKNILDVLEKEGPLKARKIALLLDSTRTTITHTTINSELYKALDLEGLTKNEQNIWSYVT” it is -0.389.
“HMSNLVEVPAVIGRMKEDAITMLISAGLEPAVTYDEYPLVKENLVADQSVAPGQKVEKGSFVTITVSRS”: the “soluble fraction (log2)” value came to 0.22.
The figure for “HMSNMESLIGREATVIEMIPAEDVGRVKIDGDEWQAVLAREDDNEPRRDIQVGEKVIIVSYDSIILTVKTK” is -1.02; for “HMSNNENSILEKLNSFSGKKIKVSHTIGSLAARLDEYPKIKMWLYKRIRENSINEQAYKYLIFIIERKVR” it is -0.0495; for “HMSNPADDVVDLLRQLRLPHMRAAAPELLATAKAQRWDPAEAIRALLTEELAGRQASSINARRK” it is -0.226.
The figure for “HMSNPPIRIGKKALHELLTTWLSLLSRDGVAYLVVQKNLGADSLTAWLRDQGFPSEKIASKKGFRIIEVH” is 0.0506.
Regarding “HMSNRDNPVVLDFKKVKSTEQLDNILEEYIRENFEGYTVKGRMFSSDEGKFIIALALKDDDGKRALVYFDV”, the “soluble fraction (log2)” value is -1.06.
Under “HMSNRIDKIKLNHWLNIRKTSLDVLNNLLSKHLNHKINFENLENLDEQAIEKISEVLSIPKNKLLINDDVP” stands -0.226; under “HMSNTVEDLIDDIGTVTKDSKDKIDAARKAYDGLTEDQKKLVPDSVLKTLTDAEAAYAKLTK”, 0.191.
For “HMSNWYGTVVKIQPRPNAQAADTAVVKLLDGSEHRFPVWADHLTTIEVGSRLKKLSGGWDPVLMDPEETF”, the “soluble fraction (log2)” value was -0.573.
Turning to “HMSNWYKNNETDQIWWKDTPDSVGEWLFSFDKKQVFNMFADYPHNLTPEQKKIFDEENPEWSDRP”, the “soluble fraction (log2)” value was -0.981.
The figure for “HMSNYPYLLRTYEGKLAVFTDDLVQPDLVFDVYVRTLPELDQQQLSRGIRVKTYDELTSMIEDYI” is -0.956; for “HMSPAVEDYLEQIHNLIAQKGYARVVDIAGNLKISQASVTNMIQRMDADGLVVYERYRGVVLTETGRK” it is -0.456.
Take “HMSPDLNEVEEKVFRALNGVESMHVNKLGIELNLPVSELFFTLLELEMKNVVKALPGGMYKL”: the “soluble fraction (log2)” value is -1.1.
The figure for “HMSPFYILDEVEAALDDTNLGRLLEIYEELRENSQLLVITHQKRTMEVGDALYGVTMRGDGVSAVISQRLR” is -1.74.
The figure for “HMSPKYLELVRWINTQIQEKKLTAGQKMYSENELKEMFGVSRQTVRHAISVLEGEGMIRRVRGSGTYINDN” is -0.043; for “HMSPLALLTPRELDILRAMTAGASNKEIARQFAIAETTVKIHVQHILRKLDVTTRVHAAVMASESGL” it is -1.09.
Under “HMSPPALAVQRDGSNVQISWPGAEEGWRLESSAEPSGAAWDLIAQNPTPVGGRWTVSLTEPTGRRFYRLVK” stands 0.039; under “HMSPSLVEAMRLRMYEMGLNQAKLSELLGVSPSRVSDYLTGRSEPTLKVARDISRKLNIDASIVLG”, -0.0682; under “HMSPSQFRSKSLLVEINFASRQMDGEILQGDYAGKRLSELTEAEVQELTAWLKQSDRESFVLLQAYLLRSG”, -1.17.
On to “HMSPSSPNQILGQYPKTKNDIILSSGRYGPYLKYNKKNYSLGNNISVEKLSLEEAVKIIDLKDKK”, for which the “soluble fraction (log2)” value was 0.0926.
In the case of “HMSPTDKATVNVYALNVRTGPGTNYKVLGSVIKGTELQVLGSSGKWLKVKYGNREAYVAGWLVK”, the “soluble fraction (log2)” value came to 0.118.
On to “HMSPTEQEKIGLFIKKLREEKNLTQEAFASLLKTSQSAVARIESGNQNITIEQLMKIGEVLNHNIVSI”, for which the “soluble fraction (log2)” value is -0.215.
Regarding “HMSQDPLETYYPQWSAAVKQSNPDAEIIRDTDGKYYVEGMTKNRVAVIYENPHLVRLVNATTNVHVE”, the “soluble fraction (log2)” value is 0.238.
Take “HMSQDTLIGRVGVIVIGQARTGSPAQVRVKDGFGQTHYVMAEPDSEGVLKQGEAVLLVSLEGNTFKAILNP”: the “soluble fraction (log2)” value is no less than 0.43.
Under “HMSQDVLLKRSGDQIEVKITEVGEDYLKYKKKGFENGPDFKINTSDVFMVTFANGEKMMFEES” stands -2.15; under “HMSQEAKLAMPVTDLRLSARTLNALELANIRTVRDLVSHTEEQLLELRNFGETALAEVKEKLAALGLRLGM”, -0.436; under “HMSQESIMPNLVGSTEDEAKAIAVEYGFQLNVISRVNNSQYPAGVIIDQNVDEGVRIKAGYPVGVTIS”, -0.0416.
Consider “HMSQIAENNQKYVGTIQKVLVEGTSKNNDDMLTGRTDSNKVVIFEGDKKLIGNMVELKIVSEHMWYLKGEL”, for which the “soluble fraction (log2)” value was -0.0811.
As to “HMSQISKLWRPSEDVTEILTRSGMDSEFLEGLIPEFIIYWSERADVLVSYNSKFIEHARLKWAQHSAEIKT”, the “soluble fraction (log2)” value was -1.94.
The figure for “HMSQLLHELLAHVLKDRIISGEWPAGSRIMSEHALQERYGVSRGTVRRALAQLVQEGLLVQRKGKGTFVTR” is 0.35; for “HMSQLVTGVLRNLNDISEKIAAGKAVPEMLGRLENMQQMIANLKGNEGLIKSISILTRSAQDALR” it is -0.0398; for “HMSQPLYWQIRRMVIDHDDANDVLQNTFIKAWSNIGSFRGDAKFSTWLYKIAVNESITFINKKKVQN” it is -0.0472.
Under “HMSQPYFELAAADMEALRNALSTIREIESVVLSGKIFHVEVREDLDPGTMNKLAFERGITLTHLVKKKN” stands -1.06; under “HMSQRINLNSASIEDMQSLDISNEKIDSIIDYRNRYGNIHNIYELLKIPGITIGDIHSIRNAVTVEIPH”, -0.472; under “HMSQSLSGWAAKDLEVKSGADASYRTVGRLPKGSKVSGKIINGYLHIEFDGSMRYVPVSGISKTE”, 0.156.
As to “HMSQSYHLADRGQSLGTLDYQAVLVGLATGRLSPDTLSWQEGEAGWVALRQRPEFASGVSAVASL”, the “soluble fraction (log2)” value was -0.753.
For “HMSRAHTELEEKLLTMLEENDMTLPMRVISNIASRIEGIIIPEEKILEVLKKSYDRYREHQMD”, the “soluble fraction (log2)” value is -0.784.
The figure for “HMSRARSRQTSMLEAVAGLGPARRRALLKQFGGLQGVLRAGIEDLSRAPGIGPALAQAIFEHLHPGA” is -0.0797; for “HMSREQARRFYFDTWAKHRASQPLTDLEKIALTVMLLHPEYHSLLDKPDHYVDKDYSPEAGQTNPFLHM” it is -0.474.
As to “HMSRIDRKGLTSQIVNHLSKNPGKNFTLKQFFRNLKLNTHPLKMLAVDVLNKLLDTNFITRNEDGEFFLKA”, the “soluble fraction (log2)” value was -0.123.
With “HMSRLMIVTPDGRIMDDVPEFGEVRTTTDVNGRVLVLDRNNVVIGFEMTPREYRREFGRNPF”, the “soluble fraction (log2)” value came out at 0.0337.
Turning to “HMSRQAPIGHRIRGRRKDIGMTQNALAKAAGISPSYLNLIEHNRRSIGGGLLMRIAAILDIHPHTL”, the “soluble fraction (log2)” value was 0.0837.
On to “HMSRTLLVYVTGAVRQPGVYELPEGSRFFDAVKAAGDVLPYAVMEDINMAEPLSDGMKIHIPLDPEQ”, for which the “soluble fraction (log2)” value is -1.01.
For the sequence “HMSRVFSPSELEIRHAQDVFQALEEAKRQGKGAVSLNGKMIDAPIVARAKLVLEAAAAIYGED”, the “soluble fraction (log2)” value was -0.202.
Turning to “HMSRVHHGFNISIARNRKGLKQAALADMLGISQQRLSQLENQRVVKDEILEKVSEATGVSVEDLKTIE”, the “soluble fraction (log2)” value is 0.171.
Take “HMSRVSVDGEEVNFEGEIPDDPSRIYELLMGALSEQSRVVVKFFVDGKDALLDEGFPSRYQMIEAESV”: the “soluble fraction (log2)” value was -0.733.
Regarding “HMSRYAFEGNVVRLNQKDFDSWKALFTNIDLVSELTRLDIEFTHDKPKNWFSTASAKLNYQNKNAY”, the “soluble fraction (log2)” value was -0.903.
Consider “HMSRYLLPYAFARTQQVLLEEKSGELTLWMHSGSNLGGISEVTRKYAVQHVTHEPMDALLNRISSAYAN”, for which the “soluble fraction (log2)” value was -2.03.
For “HMSSAVKRALAELPENWRMIVYYRVVEGLSYAEIAKVLDIPDGSVMSGLHRGKKMLRGLLLEYAQQEGYD”, the “soluble fraction (log2)” value was -0.74.
Under “HMSSDDEAFKRELVGLIPHLRAFARTLTGDPTAADDLAQDAMMKAWDARASYQMGTNMKAWTFMILRNQFY” stands -1.65; under “HMSSDKVWSFEASGKQLQASYVAFENETVYLRASEDGSLLQFPLTDFGMKDQLVVLELYELSAKINRSN”, -0.779.
Under “HMSSDLSNVVKIIDTLKHKKGALLPILHQIQREIGYIPLKTIDTIAKKLQQTPAEIHGVISFYHQFRTS” stands 0.22; under “HMSSEASALRGWLQTSQYQGSVTLFANALNVPLKTVEDWVYGRSKPSLQHWSQLYEATGLPEYQQ”, 0.0888.
As for “HMSSFRDISGTVYVKASAANLRSEPNTSSLIVDTLYYGASLQRISTNDIWTKVKTGNGQIGFMDNSLFQT”, the “soluble fraction (log2)” value is no less than 0.43.
“HMSSGSLLTEREIEILAEMAKGLTNKAIGEKLFISVATVKTHILNIYRKLEVSSRVTAVNKAKQMRL”: the “soluble fraction (log2)” value was -0.11.
On to “HMSSGTAYATDAVNVRSGPGTSYTVLGYLSRGEKVTITGTVSNGWTQIQLPGNRLGYVSSAYLSASYPS”, for which the “soluble fraction (log2)” value is -0.115.
The figure for “HMSSHNIALDQDVVVTQLKGKVYLVAADGSQKQLAEGDILPKDAVLITPEGASFKGGNQTFTLS” is -0.235; for “HMSSIFTRIIAGEIPSYKVAEDENYYAFLDINPLTKGHTLVVPKMEVDYIFDLDDKTLAGMMLFAKKG” it is -0.455; for “HMSSKIKYSEFITMLDKGEVESVVLKSDTLTITLKHGTGVAAQTKTTTLMEDLSELTKRLEKAGIKDFDK” it is 0.22.
Regarding “HMSSLDTLTARETQILAEMAQGKNNAAIAAAVSVSERAVEKHTNSIFAKLGLSEEKDVNRRVMAVLLFLGR”, the “soluble fraction (log2)” value was -1.5.
For “HMSSLEQVYPNPVSSILKLNSFIKNYKILNATGHEVLKGSGNTINVGKLPSGSYFLITSENYSIKFIK”, the “soluble fraction (log2)” value was found to be 0.119.
For the sequence “HMSSLSGVRRTLLDSLGMPPDASDEELADRREELRGSLDTAPQARRKWIEQQLARIDAITALDASG”, the “soluble fraction (log2)” value was -0.0243.
Turning to “HMSSPEAAEVQRLLKDGQHVQALKIIDESLARNPKDPQMRFRRGVALSMLDRKNEALAVFQKLVED”, the “soluble fraction (log2)” value is -0.0849.
The figure for “HMSSPRAIYSAIQKAVGEDMILYREDVQIILDKLDADLLVDDILEKMELDGTLVRQRDGTWLLL” is -1.01.
